Data as given in paper doi:10.1101/2021.01.29.428744.

Biological target: AlexaFluor594-tagged α-SYN pre-formed fibrils (PFFs) (human) (UniProt P37840)
Test: two-color coincidence detection

[…]1 (from UniProt Q9H0R8 1-117) (natural protein)
relative presence of GFP species in the aggregates: 0.14
